Numbering of substitutions follows the chain as printed. Numbers in names are those of the source. No end group written: not given here.

T1: human IGFBP-1 (human, UniProt P08833 26-259)
T1 sequence (looked up): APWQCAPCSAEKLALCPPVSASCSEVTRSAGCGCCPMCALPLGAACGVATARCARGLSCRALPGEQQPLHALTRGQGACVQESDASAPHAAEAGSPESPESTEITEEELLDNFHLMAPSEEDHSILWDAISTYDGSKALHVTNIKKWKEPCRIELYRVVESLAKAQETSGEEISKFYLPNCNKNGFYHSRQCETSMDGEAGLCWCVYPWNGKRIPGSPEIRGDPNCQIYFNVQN

B1: 23D3.5 (peptide)
peptide displayed on M13 phage as a fusion to g8p: AMWVCVSDWETVEECIQYMY
modifications: not fully specified (bridges); cysteine pairing not given here; also: displayed on phage as g8p fusion
notes: whole phage particle in the assay; also called peptide-phage clone 23D3.5 (g8 display)
B2: 23D3.1 (peptide)
peptide displayed on M13 phage as a fusion to g8p: FGGWSCQPTWVDVYVCNFEE
modifications: not fully specified (bridges); cysteine pairing not given here; also: displayed on phage coat protein g8
notes: whole phage particle in the assay; also called peptide-phage clone 23D3.1 (g8 display)
B3: 23D3.4 (peptide)
peptide displayed on M13 phage as a fusion to g8p: AMWVCVSDWETVEECIQYMY
modifications: not fully specified (bridges); cysteine pairing not given here; also: displayed on phage coat protein g8
notes: whole phage particle in the assay; also called peptide-phage clone 23D3.4 (g8 display)
B4: 23B3.5 (peptide)
peptide displayed on M13 phage as a fusion to g8p: DKEVCYLGPETWLCFWWP
modifications: not fully specified (bridges); cysteine pairing not given here; also: displayed on phage coat protein g8
notes: whole phage particle in the assay; also called peptide-phage clone 23B3.5 (g8 display)
B5: 23D3.2 (peptide)
peptide displayed on M13 phage as a fusion to g8p: AMWVCVSDWETVEECIQYMY
modifications: not fully specified (bridges); cysteine pairing not given here; also: displayed on phage coat protein g8
notes: whole phage particle in the assay; also called peptide-phage clone 23D3.2 (g8 display)
B6: 23B3.1 (peptide)
peptide displayed on M13 phage as a fusion to g8p: TGVDCQCGPVHCVCMDWA
notes: whole phage particle in the assay; also called peptide-phage clone 23B3.1 (g8 display)
B7: 23D3.3 (peptide)
peptide displayed on M13 phage as a fusion to g8p: AMWVCVSDWETVEECIQYMY
modifications: not fully specified (bridges); cysteine pairing not given here; also: displayed on phage coat protein g8
notes: whole phage particle in the assay; also called peptide-phage clone 23D3.3 (g8 display)
B8: 23A3.1 (peptide)
peptide displayed on M13 phage as a fusion to g8p: EPWLCQYYEAAMLYLCWEEG
modifications: not fully specified (bridges); cysteine pairing not given here; also: displayed on phage coat protein g8
notes: whole phage particle in the assay; also called peptide-phage clone 23A3.1 (g8 display)
B9: 23A3.4 (peptide)
peptide displayed on M13 phage as a fusion to g8p: EPWLCQYYEAAMLYLCWEEG
modifications: not fully specified (bridges); cysteine pairing not given here; also: displayed on phage coat protein g8
notes: whole phage particle in the assay; also called peptide-phage clone 23A3.4 (g8 display)
B10: 23B3.6 (peptide)
peptide displayed on M13 phage as a fusion to g8p: EVLLCSDGPQLYLCELYA
modifications: not fully specified (bridges); cysteine pairing not given here; also: displayed on phage coat protein g8
notes: whole phage particle in the assay; also called peptide-phage clone 23B3.6 (g8 display)
B11: 23B3.4 (peptide)
peptide displayed on M13 phage as a fusion to g8p: SGVECVWGPQWGFCVEEY
modifications: not fully specified (bridges); cysteine pairing not given here; also: displayed on phage coat protein g8
notes: whole phage particle in the assay; also called peptide-phage clone 23B3.4 (g8 display)
B12: 23D3.6 (peptide)
peptide displayed on M13 phage as a fusion to g8p: TNWFFVCESGHQDICWLAEE
modifications: not fully specified (bridges); cysteine pairing not given here; also: displayed on phage as g8p fusion
notes: whole phage particle in the assay; also called peptide-phage clone 23D3.6 (g8 display)
B13: 23B3.2 (peptide)
peptide displayed on M13 phage as a fusion to g8p: EVLLCSDGPQLYLCELYA
modifications: not fully specified (bridges); cysteine pairing not given here; also: displayed on phage coat protein g8
notes: whole phage particle in the assay; also called peptide-phage clone 23B3.2 (g8 display)
B14: 23B3.7 (peptide)
peptide displayed on M13 phage as a fusion to g8p: GDVECIEGPWGELCVWAD
modifications: not fully specified (bridges); cysteine pairing not given here; also: displayed on phage coat protein g8
notes: whole phage particle in the assay; also called peptide-phage clone 23B3.7 (g8 display)
B15: IGF-1 G42A displayed on phage (ligand, not shown: large carriers; small tags and cut ends)
chain: SPETLCGAELVDALQFVCGDRGFYFNKPTGYGSSSRRAPQTAIVDECCFRSCDLRRLEMYCAPLKPAKSV
notes: G1S-A70V background
B16: IGF-1 I43A displayed on phage (ligand, not shown: large carriers; small tags and cut ends)
chain: B15 chain with A42G, I43A
notes: G1S-A70V background
B17: IGF-1 L54A displayed on phage (ligand, not shown: large carriers; small tags and cut ends)
chain: B15 chain with A42G, L54A
modifications: ends and bridges not checked; also: displayed on M13 phage, fused to g3p fragment (249-406) via amber-codon residue
notes: G1S-A70V background
B18: IGF-1 T41A displayed on phage (ligand, not shown: large carriers; small tags and cut ends)
chain: B15 chain with T41A, A42G
notes: G1S-A70V background
B19: IGF-1 S51A displayed on phage (ligand, not shown: large carriers; small tags and cut ends)
chain: B15 chain with A42G, S51A
modifications: not fully specified; ends and bridges not checked
notes: G1S-A70V background
B20: IGF-1 R56A displayed on phage (ligand, not shown: large carriers; small tags and cut ends)
chain: B15 chain with A42G, R56A
modifications: not fully specified; ends and bridges not checked
notes: G1S-A70V background
B21: IGF-1 R50A displayed on phage (ligand, not shown: large carriers; small tags and cut ends)
chain: B15 chain with A42G, R50A
notes: G1S-A70V background
B22: IGF-1 R55A displayed on phage (ligand, not shown: large carriers; small tags and cut ends)
chain: B15 chain with A42G, R55A
modifications: not fully specified; ends and bridges not checked
notes: G1S-A70V background
B23: IGF-1 L57A displayed on phage (ligand, not shown: large carriers; small tags and cut ends)
chain: B15 chain with A42G, L57A
modifications: not fully specified; ends and bridges not checked
notes: G1S-A70V background
B24: IGF-1 M59A displayed on phage (ligand, not shown: large carriers; small tags and cut ends)
chain: B15 chain with A42G, M59A
modifications: not fully specified; ends and bridges not checked
notes: G1S-A70V background
B25: IGF-1 V44A displayed on phage (ligand, not shown: large carriers; small tags and cut ends)
chain: B15 chain with A42G, V44A
notes: G1S-A70V background
B26: Ala(1-3)-IGF-1 displayed on phage (ligand, bacteriophage M13)
chain: AAATLCGAELVDALQFVCGDRGFYFNKPTGYGSSSRRAPQTGIVDECCFRSCDLRRLEMYCAPLKPAKSVSGGGSGSGDFDYEKMANANKGAMTENADENALQSDAKGKLDSVATDYGAAIDGFIGDVSGLANGNGATGDFAGSNSQMAQVGDGDNSPLMNNFRQYLPSLPQSVECRPFVFSAGKPYEFSIDCDKINLFRGVFAFLLYVATFMYVFSTFANILRNKES
notes: range 249-406
B27: IGF-1 P2A displayed on phage (ligand, bacteriophage M13)
chain: B26 chain with A1S, A3E
notes: range 249-406; G1S-A70V background

T2 sequence (P17936 28-291 limits assumed): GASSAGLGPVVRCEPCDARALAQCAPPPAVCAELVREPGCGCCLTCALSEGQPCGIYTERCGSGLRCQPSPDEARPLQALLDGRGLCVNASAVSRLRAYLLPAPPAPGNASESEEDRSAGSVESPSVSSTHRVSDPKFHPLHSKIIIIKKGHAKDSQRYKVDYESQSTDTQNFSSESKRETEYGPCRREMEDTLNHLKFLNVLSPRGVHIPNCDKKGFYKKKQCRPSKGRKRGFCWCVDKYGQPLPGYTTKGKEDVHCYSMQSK

For the first experiment, the target named is T2, recombinant human IGFBP-3 (human, UniProt P17936 28-291). The experiment is described as follows: phage ELISA (IGF-blocking phage assay): g8 peptide-phage on an IGFBP-3-coated plate, without and with IGF-1; OD492. Here is the method:
The plates were then washed ten times, as above, and a solution of rabbit anti-phage antibody mixed with a goat-anti-rabbit conjugate of horseradish peroxidase was added. After an incubation of 1 hour at room temperature, the plates were developed with a chromogenic substrate, o-phenylenediamine (Sigma). The reaction was stopped with addition of ½ volume of 2.5 M H₂SO₄. Optical density at 490 nm was measured on a spectrophotometric plate reader.
In each case, the phagemid clone was grown from a single colony overnight at 37° C. in a culture volume of 5 ml. The phage particles were prepared as described above.
(In general: In an ELISA, binding on a coated surface is turned into a signal by an enzyme label.)
Regarding B1, the binding result was “binds”.
For the molecule B2, the binding result is recorded as “binds”.
B3: the binding result was “binds”.
Same read-out and setting: the result for B4 reads “binds”.
For the molecule B5, the binding result is “binds”.
On the same count and under the same terms, with B6 the entry was “binds”.
The same measure, in the same setting: with B7 the entry was “binds”; with B8, “binds”.
Same read-out and setting: the result for B9 reads “binds”; that for B10, “binds”; that for B11, “binds”.
Consider B12, for which the binding result is on record as “binds”.
Still for that read-out and setting: the result for B13 reads “binds”; that for B14, “binds”.

The target in a further experiment is T1, human IGFBP-1. The experiment is described as follows: competitive phage ELISA. The procedure:
(§1) E. coli cells (XL1-Blue, Stratagene) freshly transformed with phagemid vector were grown overnight in 5 mL 2YT medium (Sambrook et al., supra) in the presence of M13-VCS helper phage (Stratagene). Phage particles were harvested and resuspended in PBS buffer as described in Lowman, H. B., “Phage Display of Peptide Libraries on Protein Scaffolds,” in Cabilly, S. (ed.), Combinatorial Peptide Library Protocols (Humana Press Inc.: Totowa, N.J., 1998), pp. 249-264. Then phage concentrations were normalized to yield a maximal ELISA signal of 0.2-0.4 for each mutant (Lowman, in Cabilly, S. (ed.), supra). Threefold serial dilutions of soluble competitor were prepared on non-absorbent microtiter plates (Nunc, F, 96 wells) with binding buffer (0.5% TWEEN 20%/PBS) containing phage at the previously determined concentrations. […] After blocking, the plates containing immobilized target were washed with 0.05% TWEEN™/PBS buffer and subsequently incubated with 80 μl/well of the premixed phage-competitor solutions for 1 hour at room temperature. […] IC₅₀ values were determined by fitting the binding data to a generic saturation curve (Lowman, in Cabilly, S. (ed.), supra). At least two individual clones of each IGF-1 mutant were assayed. Numbers in Table XIII represent mean±standard deviation of individually assessed IC₅₀ values.
For orientation: IC50 means the midpoint of a concentration-inhibition curve. For the molecule B15, the IC50 was found to be 15.7 nM.
Still for that read-out and setting: with B16 the figure was 31.3 nM; with B17, 23.1 nM.
Same read-out and setting: the result for B18 reads 13.7 nM.
Still for that read-out and setting: the result for B19 reads 13.4 nM; that for B20, 13.1 nM; that for B21, 16.2 nM.
For B22, the IC50 came out at 9 nM.
Same read-out and setting: with B23 the figure was 21.8 nM.
B24 came in with an IC50 of 13.1 nM.
Still for that read-out and setting: with B25 the figure was 18.8 nM; with B26, 90.4 nM.
On the same count and under the same terms, the result for B27 reads 11 nM.

The target in a further experiment is T2, recombinant human IGFBP-3. The experiment is described as follows: competitive phage ELISA. Here is the method:
as §1
In the case of B15, the IC50 turned out to be 0.53 nM.
Same read-out and setting: with B16 the figure was 1.17 nM.
On the same count and under the same terms, with B17 the figure was 1.83 nM.
Still for that read-out and setting: the result for B18 reads 0.43 nM.
As for B19, the IC50 worked out at 0.65 nM.
Same read-out and setting: with B20 the figure was 1 nM; with B21, 0.64 nM; with B22, 0.66 nM.
As to B23, the IC50 turned out to be 1.78 nM.
Consider B24, for which the IC50 was 0.74 nM.
On to B25, for which the IC50 is 1.03 nM.
Same read-out and setting: the result for B26 reads 1.12 nM; that for B27, 0.81 nM.

Source of the values: patent US20090011988A1 (Genentech, published 2009).
